Results from patent US20110293511A1, “SPECIFIC BINDING PROTEINS AND USES THEREOF” (priority 2009, published 2011).
Marks after values point to notes of the source that are not given here.

Tests used:
denaturated sEGFR = target: T1, denaturated sEGFR (Homo sapiens, UniProt P00533); assay: BIAcore with immobilized sEGFR; assay type: binding
T1 construct: sEGFR is the recombinant extracellular domain (amino acids 1-621) of the wild-type EGFR); host or cells: CHO cells
Description: In a second set of BIAcore experiments, sEGFR was immobilized on a CM microsensor chip at a surface density of ˜4000RU. Serial dilutions of mAbs were tested for reactivity with sEGFR.

U87MG.DK cells = assay: binding to cell lines by FACS; design: species or system human
Description: Populations expressing similar levels of the various EGFR alleles (these expression levels correspond approximately to an amplification level of 25 gene copies; human glioblastomas typically have amplification levels from 10 to 50 gene copies of the truncated receptor) were selected by FACS as described previously (Nishikawa et al., 1994) and designated as U87MG.ΔEGFR, U87MG.DK, U87MG.wtEGFR, LN-Z308.ΔEGFR, LN-Z308.DK, LN-Z308.wtEGFR, A1207.ΔEGFR, A1207.DK, and A1207.wtEGFR, respectively. Each was maintained in medium containing G418 (U87MG cell lines, 400 μg/ml; LN-Z308 and A1207 cell lines, 800 μg/ml).
Stained cells were analyzed with a FACS Calibur using Cell Quest software (Becton-Dickinson PharMingen). […] 1. Mouse IgG2a or IgG2b was used as an isotype control.

[1] = target: T2, denatured soluble domain of the EGFR (sEGFR) (Homo sapiens, UniProt P00533); assay: competition ELISA with biotinylated mAb806; assay type: binding; details: after unlabeled blocking antibody
T2 construct: sEGFR is the recombinant extracellular domain (amino acids 1-621) of the wild-type EGFR); host or cells: CHO cells
Description: Briefly, the denatured soluble domain of the EGFR (sEGFR) was coated on to ELISA plates. The unlabeled 124 or 1133 antibodies were then added across the plate in increasing concentrations.

deglycosylated sEGFR = target: T3, deglycosylated sEGFR (Homo sapiens, UniProt P00533); assay: immunoblot of PNGase F treated sEGFR; assay type: binding
T3 construct: sEGFR is the recombinant extracellular domain (amino acids 1-621) of the wild-type EGFR); host or cells: CHO cells
Description: To determine if carbohydrate structures are directly involved in the mAb806 epitope, the recombinant sEGFR expressed in CHO cells was treated with PNGase F to remove N-linked glycosylation.

[2] = system: U87MG.wtEGFR brain xenografts; assay: intracranial glioma xenograft treatment; assay type: in vivo, nude mice; details: i.p. day 0 through 14
[3] = system: glioblastomas not preselected for EGFR status; assay: immunohistochemistry of 46 unselected glioblastomas; assay type: binding, human
Description: (§1) Immunohistochemical analysis was performed using […] sections of fresh frozen tissue applied to histology slides and fixed for 10 minutes in cold acetone. Bound primary antibody was detected with biotinylated horse anti-mouse antibody followed by an avidin-biotin-complex reaction. Diaminobenzidine tetrahydrochloride (DAB) was used as chromogen. The extent of the immunohistochemical reactivity in tissues was estimated by light microscopy and graded according to the number of immunoreactive cells in 25% increments as follows:
The 528 antibody was strongly and homogeneously positive in all samples except two (Nos. 27 and 29) (44/46, 95.7%).

[4] = system: panel of 12 different malignancies; assay: immunohistochemistry of tumor panel; assay type: binding, human
Description: as §1
The extent of de2-7 EGFR in other tumor types was examined using a panel of 12 different malignancies. […] This staining was strongly dependent on antibody concentration used and was considered nonspecific background reactivity.

[5] = target: T4, sEGFR (recombinant extracellular domain of the wild-type EGFR) (Homo sapiens, UniProt P00533); assay: ELISA on sEGFR coated plates; assay type: binding
T4 construct: sEGFR is the recombinant extracellular domain (amino acids 1-621) of the wild-type EGFR); host or cells: CHO cells
Description: Two types of ELISA were used to determine the specificity of the antibodies. […] Growth Factors. 18, 11-29). Antibodies were added to wells in triplicate at increasing concentration in 2% HSA in phosphate-buffered saline (PBS).

[6] = system: Ba/F3 cells expressing the wtEGFR; assay: MTT proliferation assay with EGF; assay type: cell-based, murine; details: antibody 10 μg/ml
Description: Cells growing in log phase were harvested and washed twice with PBS to remove residual IL-3. […] Proliferation was determined using the MTT assay (van de Loosdrecht et al. (1994) J. Immunol. Methods. 174, 311-320).

A431 cells = assay: binding to cell lines by FACS; design: species or system human
DU145 xenografts = assay: s.c. xenograft therapy study; assay type: in vivo, nude mice; details: day 67; 1 mg i.p.; control 1145

B1: mAb806: murine IgG2b monoclonal antibody, clone 806, ATCC PTA-3858; VH SEQ ID NO:2, VL SEQ ID NO:4 (antibody, listed as Mus musculus, V domains shown)
VH: MRVLILLWLFTAFPGVLSDVQLQESGPSLVKPSQSLSLTCTVTGYSITSDFAWNWIRQFPGNKLEWMGYISYSGNTRYNPSLKSRISITRDTSKNQFFLQLNSVTIEDTATYYCVTAGRGFPYWGQGTLVTVSA
VL: MVSTAQFLAFLLLWFPGARCDILMTQSPSSMSVSLGDTVSITCHSSQDINSNIGWLQQRPGKSFKGLIYHGTNLDDEVPSRFSGSGSGADYSLTISSLESEDFADYYCVQYAQFPWTFGGGTKLEIKR
Denaturated sEGFR
  reactivity with denaturated sEGFR: strongly reactive
U87MG.DK cells
  FACS staining: reacted intensely
[1]
  Binding of biotin-labeled 806: None
Deglycosylated sEGFR
  binding to deglycosylated sEGFR: clearly bound
[2]
  median survival: 23 days
[3]; glioblastoma #1, EGFR Amp. A, 5′ MUT
  Immunoreactivity: ++++ (++++=>75%)
[3]; glioblastoma #2, EGFR Amp. N, WT
  Immunoreactivity: ++++ (++++=>75%)
[3]; glioblastoma #3, EGFR Amp. N, A2
  Immunoreactivity: ++++ (++++=>75%)
[3]; glioblastoma #4, EGFR Amp. N, WT
  Immunoreactivity: ++++ (++++=>75%)
[3]; glioblastoma #5, EGFR Amp. N, 5′ MUT
  Immunoreactivity: ++++ (++++=>75%)
[3]; glioblastoma #6, EGFR Amp. A, WT
  Immunoreactivity: ++++ (++++=>75%)
[3]; glioblastoma #7, EGFR Amp. N, 5′ MUT
  Immunoreactivity: ++++ (++++=>75%)
[3]; glioblastoma #8, EGFR Amp. A, 5′ MUT
  Immunoreactivity: ++++ (++++=>75%)
[3]; glioblastoma #9, EGFR Amp. A, WT
  Immunoreactivity: ++++ (++++=>75%)
[3]; glioblastoma #10, EGFR Amp. N, WT
  Immunoreactivity: neg.
[3]; glioblastoma #11, EGFR Amp. A, 5′ MUT
  Immunoreactivity: ++ (++=25-50%)
[3]; glioblastoma #12, EGFR Amp. A, 5′ MUT
  Immunoreactivity: ++ (++=25-50%)
[3]; glioblastoma #13, EGFR Amp. N, WT
  Immunoreactivity: ++++ (++++=>75%)
[3]; glioblastoma #14, EGFR Amp. Nd, nd
  Immunoreactivity: neg.
[3]; glioblastoma #15, EGFR Amp. N, WT
  Immunoreactivity: ++ (++=25-50%)
[3]; glioblastoma #16, EGFR Amp. N, nd
  Immunoreactivity: neg.
[3]; glioblastoma #17, EGFR Amp. N, WT
  Immunoreactivity: neg.
[3]; glioblastoma #18, EGFR Amp. A, 5′ MUT
  Immunoreactivity: ++++ (++++=>75%)
[3]; glioblastoma #19, EGFR Amp. N, WT
  Immunoreactivity: ++++ (++++=>75%)
[3]; glioblastoma #20, EGFR Amp. N, WT
  Immunoreactivity: neg.
[3]; glioblastoma #21, EGFR Amp. N, WT
  Immunoreactivity: ++++ (++++=>75%)
[3]; glioblastoma #22, EGFR Amp. N, WT
  Immunoreactivity: neg.
[3]; glioblastoma #23, EGFR Amp. N, 5′ MUT
  Immunoreactivity: ++++ (++++=>75%)
[3]; glioblastoma #24, EGFR Amp. A, WT
  Immunoreactivity: ++++ (++++=>75%)
[3]; glioblastoma #25, EGFR Amp. N, WT
  Immunoreactivity: neg.
[3]; glioblastoma #26, EGFR Amp. A, 5′ MUT
  Immunoreactivity: ++++ (++++=>75%)
[3]; glioblastoma #27, EGFR Amp. N, WT
  Immunoreactivity: neg.
[3]; glioblastoma #28, EGFR Amp. N, WT
  Immunoreactivity: neg.
[3]; glioblastoma #29, EGFR Amp. N, WT
  Immunoreactivity: neg.
[3]; glioblastoma #30, EGFR Amp. N, WT
  Immunoreactivity: ++++ (++++=>75%)
[3]; glioblastoma #31, EGFR Amp. N, nd
  Immunoreactivity: neg.
[3]; glioblastoma #32, EGFR Amp. N, 5′ MUT
  Immunoreactivity: +++ (+++=50-75%)
[3]; glioblastoma #33, EGFR Amp. A, 5′ MUT
  Immunoreactivity: ++++ (++++=>75%)
[3]; glioblastoma #34, EGFR Amp. N, WT
  Immunoreactivity: +++ (+++=50-75%)
[3]; glioblastoma #35, EGFR Amp. A, 5′ MUT
  Immunoreactivity: neg.
[3]; glioblastoma #36, EGFR Amp. A, 5′ MUT
  Immunoreactivity: ++ (++=25-50%)
[3]; glioblastoma #37, EGFR Amp. A, 5′ MUT
  Immunoreactivity: + (+=5-25%)
[3]; glioblastoma #38, EGFR Amp. N, WT
  Immunoreactivity: neg.
[3]; glioblastoma #39, EGFR Amp. N, 5′ MUT
  Immunoreactivity: neg.
[3]; glioblastoma #40, EGFR Amp. A, WT
  Immunoreactivity: ++++ (++++=>75%)
[3]; glioblastoma #41, EGFR Amp. N, WT
  Immunoreactivity: neg.
[3]; glioblastoma #42, EGFR Amp. A, WT
  Immunoreactivity: ++++ (++++=>75%)
[3]; glioblastoma #43, EGFR Amp. nd, nd
  Immunoreactivity: neg.
[3]; glioblastoma #44, EGFR Amp. N, WT
  Immunoreactivity: neg.
[3]; glioblastoma #45, EGFR Amp. N, WT
  Immunoreactivity: neg.
[3]; glioblastoma #46, EGFR Amp. N, nd
  Immunoreactivity: neg.
[3]; panel of 46
  positive cases / glioblastomas: 27/46
[4]; Colonic carcinoma
  positive tumors / tumors tested: 0/10
[4]; Head + neck cancer (sqcc)
  positive tumors / tumors tested: 7/11
[4]; Leiomyosarcoma
  positive tumors / tumors tested: 0/5
[4]; Liposarcoma
  positive tumors / tumors tested: 0/5*
[4]; Lung (sqcc, adeno, neuroend)
  positive tumors / tumors tested: 6/12
[4]; Malignant melanoma metastases
  positive tumors / tumors tested: 0/10
[4]; Mammary gland
  positive tumors / tumors tested: 1/10
[4]; Mfh Malignant fibrous histiocytoma
  positive tumors / tumors tested: 0/5*
[4]; Ovary (serous-papillary)
  positive tumors / tumors tested: 0/5
[4]; Seminoma
  positive tumors / tumors tested: 0/10
[4]; Synovial sarcoma
  positive tumors / tumors tested: 0/5*
[4]; Urinary bladder (tcc, sqcc, adeno)
  positive tumors / tumors tested: 3/10*
[4]; head and neck tumors
  tumors with positive staining: 64%
[4]; lung carcinomas
  tumors with positive staining: 50%
[4]; urinary tumors
  tumors with positive staining: 30%
[5]; ELISA
  inhibition of binding to immobilized sEGFR by sEGFR in solution: unable to inhibit
[5]; ELISA, up to 10 μg/ml
  binding to immobilized wild-type sEGFR: dose-dependent and saturating binding curves
[5]; sEGFR heated 10 min at 95° C.
  inhibition of binding to immobilized sEGFR by denatured sEGFR in solution: able to inhibit
[6]
  effect on EGF-induced proliferation: no effect
A431 cells
  FACS staining: Low, but highly reproducible, binding
DU145 xenografts
  mean tumor volume: 605 mm^3
